These results are taken from article PMC10881741, “Structural modifications toward improved lead-203/lead-212 peptide-based image-guided alpha-particle radiopharmaceutical therapies for neuroendocrine tumors” (European Journal of Nuclear Medicine and Molecular Imaging, 2023).

Data set [1] is described as follows: In vivo biodistribution of ^203Pb-labeled peptides. More on the design: species or system mice. Particulars: female, athymic nu/nu, mouse, intravenous, 37 kBq, total radioactivity; for tissue uptake at 3 h: 3 h post-administration; for tissue uptake at 24 h: 24 h post-administration; for tissue uptake at 1 h: 1 h post-administration. How it is done:
AR42J cells (5.0 × 10^6 cells/animal) were implanted subcutaneously on the left shoulder of female athymic nu/nu mice. […] Extra groups of mice were co-administered 37 kBq of ^203Pb-PSC-PEG2-TOC with DL-lysine (400 mg/kg) to determine the effect of amino acid on renal uptake of the radiopharmaceutical. Mice (n=3 per time point) were euthanized at 1, 3, and 24 h post-administration, and tumors and organs/tissues of interest were excised and weighed. The radioactivities of the samples were measured using the gamma counter.

In data set [2] the test system is midgut NETs. Also on record: method as in PMID 28076709, PMID 28428192. Particulars: patients with midgut NETs ref 5, 6; cited from earlier work.
A short description of data set [3]: Stability in water and human serum (radio-HPLC). The data set is classed as in vitro ADME. As to conditions: ^203Pb-labeled, 37 °C, up to 24 h. From the text:
New peptides were designed and synthesized using standard fluorenylmethyloxycarbonyl (Fmoc)-based solid phase peptide synthesis. The peptides were developed under two basic strategies: (a) a click cyclization approach to substitute the disulfide bond of TOC with a triazole link, which potentially improves PK and in vivo stability; and (b) Pb-specific structural optimization based on TOC by incorporating the new chelator composition and various sizes of PEG linkers (Fig. 1 and Table 1). […] The radiolabeling and purification process for the preparation of ^203Pb/^212Pb-labeled peptides followed the methods outlined in a previously published study. […] The stability of the most promising RPDC, [^203Pb]Pb-PSC-PEG2-TOC, was evaluated in water and normal human serum up to 24 h of incubation at 37 °C using the radio-HPLC system. Furthermore, PSC-PEG2-TOC was assessed for a radiolabeling yield with clinically relevant ^203Pb activity (1.8–3.6 GBq) to assess changes in performance with increases in molar activity (MBq/nmol; Supplementary Material).
PSC-PEG2-TOC was characterized for stability in water and human serum. […] The penetrate by centrifugation (serum samples) or the samples in water were analyzed by a radio-HPLC system (Agilent 1200 Series connected with an IN/US β-RAM Model 4 radio-detector) to monitor the degree of peptide degradation.

Data set [4] has as its target T1, SSTR2 (Rattus norvegicus, UniProt P30680).
T1 construct: host or cells: AR42J rat pancreatic acinar cells
Nature of the data set: In vitro competitive binding assay ([^125I]I-TOC displacement in AR42J cells).
Procedure: SSTR2-positive AR42J rat pancreatic acinar cells were purchased from the American Type Culture Collection (ATCC; CRL-1492) and were cultured in RPMI 1640 medium, supplemented with 10% fetal bovine serum (FBS), 2 mM glutamine, and antibiotics (0.1 mg/mL streptomycin and 100 IU penicillin) at 37 °C under a humidified condition (5% CO2). The cells were plated into poly-D-lysine-coated 24-well plates at a density of 1.0 × 10^5 cells per well. […] Cells were then washed twice with ice-cold PBS and lysed with 0.5 N NaOH. The radioactivities of the harvested samples were measured using an automated gamma counter (PerkinElmer Cobra II; PerkinElmer, Freemont, CA). IC50 was determined using GraphPad Prism V8.0.

Where [5] appears, read: large intestine, read-out: Large intestine.
Setting [6] is: small intestine, read-out: Small intestine.

Where two headings read alike, the source gives them in different places.

T1 sequence (P30680 whole entry): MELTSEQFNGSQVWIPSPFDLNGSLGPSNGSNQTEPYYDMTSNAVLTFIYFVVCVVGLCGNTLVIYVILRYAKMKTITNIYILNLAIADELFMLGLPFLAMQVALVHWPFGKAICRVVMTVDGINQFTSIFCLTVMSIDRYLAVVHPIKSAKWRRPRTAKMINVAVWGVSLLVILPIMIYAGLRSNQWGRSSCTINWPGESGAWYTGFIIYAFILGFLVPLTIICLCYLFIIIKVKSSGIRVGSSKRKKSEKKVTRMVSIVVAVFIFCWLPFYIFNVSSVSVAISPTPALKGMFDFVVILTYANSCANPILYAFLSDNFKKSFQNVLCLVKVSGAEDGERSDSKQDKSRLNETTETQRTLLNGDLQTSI

Take `C[C@@H](O)[C@@H]1NC(=O)[C@H](CCCCN)NC(=O)[C@@H](Cc2c[nH]c3ccccc23)NC(=O)[C@H](Cc2ccc(O)cc2)NC(=O)[C@@H](NC(=O)[C@@H](Cc2ccccc2)NC(=O)CN2CCN(CC(=O)O)CCN(CC(=O)O)CCN(CC(=O)O)CC2)CSSC[C@@H](C(=O)N[C@H](CO)[C@@H](C)O)NC1=O` [[^203Pb]Pb-DOTATOC, metal not drawn, reference compound]: the tissue uptake at 3 h is 0.02 %ID/g in data set [1] (blood, read-out: Blood); 0.01 %ID/g in data set [1] (brain, read-out: Brain); 0.07 ± 0.05 %ID/g in data set [1] (heart, read-out: Heart); 14.6 ± 2.34 %ID/g in data set [1] (kidneys, read-out: Kidneys); 1.11 ± 0.74 %ID/g in data set [1] (setting [5]); 0.16 ± 0.02 %ID/g in data set [1] (liver, read-out: Liver). Moreover, the tissue uptake at 3 h turned out to be 0.59 ± 0.23 %ID/g in data set [1] (lung, read-out: Lung); 0.04 ± 0.01 %ID/g in data set [1] (muscle, read-out: Muscle); 1.78 ± 2.19 %ID/g in data set [1] (setting [6]); 4.47 ± 0.75 %ID/g in data set [1] (tumor, read-out: Tumor). Further, the tissue uptake at 24 h in data set [1] (blood, read-out: Blood) turned out to be 0.01 %ID/g; in data set [1] (brain, read-out: Brain), 0.01 %ID/g; in data set [1] (heart, read-out: Heart) it was 0.02 ± 0.01 %ID/g; in data set [1] (kidneys, read-out: Kidneys) it was 7.6 %ID/g; in data set [1] (setting [5]), 0.17 ± 0.04 %ID/g; in data set [1] (liver, read-out: Liver) it was 0.08 ± 0.01 %ID/g. Moreover, the tissue uptake at 24 h in data set [1] (lung, read-out: Lung) turned out to be 0.27 ± 0.04 %ID/g; in data set [1] (muscle, read-out: Muscle), 0.02 %ID/g; in data set [1] (setting [6]), 0.08 ± 0.06 %ID/g; in data set [1] (spleen, read-out: Spleen), 0.1 ± 0.01 %ID/g; in data set [1] (tumor, read-out: Tumor), 2.44 ± 0.19 %ID/g. Moreover, the tissue uptake at 1 h in data set [1] (brain, read-out: Brain) was 0.03 ± 0.01 %ID/g; in data set [1] (kidneys, read-out: Kidneys), 12.2 %ID/g; in data set [1] (setting [5]), 0.32 ± 0.12 %ID/g; in data set [1] (liver, read-out: Liver), 0.28 ± 0.05 %ID/g; in data set [1] (lung, read-out: Lung), 0.91 ± 0.41 %ID/g; in data set [1] (muscle, read-out: Muscle) it was 0.1 ± 0.03 %ID/g. In addition, the tissue uptake at 1 h was determined as 1.91 ± 0.8 %ID/g in data set [1] (setting [6]); 0.27 ± 0.05 %ID/g in data set [1] (spleen, read-out: Spleen); 4.6 ± 0.18 %ID/g in data set [1] (tumor, read-out: Tumor).

For [^177Lu]Lu-DOTATATE, in data set [2], the Complete response rate is 1% and the Objective responses is on record as 18–30%.

In the case of `C[C@@H](O)[C@@H]1NC(=O)[C@H](CCCCN)NC(=O)[C@@H](Cc2c[nH]c3ccccc23)NC(=O)[C@H](Cc2ccc(O)cc2)NC(=O)[C@@H](NC(=O)[C@@H](Cc2ccccc2)NC(=O)CCOCCOCCNC(=O)CN2CCN(CC(=O)O)CCN(CC(N)=O)CCN(CC(=O)O)CC2)CSSC[C@@H](C(=O)N[C@H](CO)[C@@H](C)O)NC1=O` [PSC-PEG2-TOC, PSC-PEG2-D-Phe-cyclo[Cys-Tyr-D-Trp-Lys-Thr-Cys]-Thr-OH], in data set [3], the “Radiochemical and metabolic stability” value was “robust radiochemical stability”. For the same compound, the “Improvement in affinity vs. DOTATOC (factor)” value in data set [4] is reported as more than 2.
